Results on 3 molecules are retold here after patent publication US20240279331A1 (University of California, published 2024).

For test [1], the target named is T1, NCR3 on cell (on-cell binding in the affinity-maturation table) (human, UniProt O14931 19-201, limits assumed).
T1 construct: On cell
T1 sequence (looked up): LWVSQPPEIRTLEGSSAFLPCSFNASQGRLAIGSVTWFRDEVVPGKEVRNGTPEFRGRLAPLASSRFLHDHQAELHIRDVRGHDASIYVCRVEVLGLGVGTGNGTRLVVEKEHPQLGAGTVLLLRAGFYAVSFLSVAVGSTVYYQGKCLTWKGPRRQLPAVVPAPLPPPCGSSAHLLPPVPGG
As to the kind of experiment: on-cell binding, Fab on NCR3.

Test [2] concerns the target T2, NCR3 (antigen of the ELISA in the affinity-maturation table) (human, UniProt O14931 19-135, limits assumed).
T2 construct: also called Natural Cytotoxicity Triggering Receptor 3
T2 sequence (looked up): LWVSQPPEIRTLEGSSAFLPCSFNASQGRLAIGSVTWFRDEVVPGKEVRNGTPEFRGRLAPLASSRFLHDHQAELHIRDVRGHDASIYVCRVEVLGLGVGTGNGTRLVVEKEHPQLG
As to the kind of experiment: ELISA, Fab on NCR3.

Test [3] concerns the target T3, TNFRSF9 extracellular domain fused to a generic transmembrane domain, on tetracycline-inducible FlpIn cells (UniProt Q07011 24-186).
T3 construct: extracellular domain; also called 4-1BB; not shown: transmembrane domain of platelet-derived growth factor (so in the source) with a HA tag
As to the kind of experiment: flow cytometry, Fab on tetracycline-inducible cell lines over-expressing each ECD (FIG. S5). As to the method:
(§1) To investigate the specificity of both activating and non-functional antibodies for their receptor targets, we developed a tetracycline-inducible cell line for each protein target—CD16, NCR1, NCR3, CD244, TNFRSF9, and TNFSF4. The ECDs of these proteins were fused to a generic transmembrane domain and were expressed upon tetracycline addition.
(§2) Titrations were performed on primary human NK cells or tetracycline induced overexpression cell lines as indicated. When tetracycline induced overexpression cell lines were used, cells were dosed with 10 μg/mL tetracycline for 2 days prior to staining. The starting concentration of each Fab or bispecific antibody was 1 μM, and serial 1:5 dilutions were performed. Antibodies were incubated with cells for 1 hr at 4° C., washed 2 times in 3% BSA in PBS pH 7.4, and stained for 30 min with an Alexafluor-647 conjugated goat anti-human IgG F(ab′)2 fragment (Jackson ImmunoResearch Laboratories) at a 1:50 dilution. After an additional 3 washes, cells were fixed and fluorescence was quantified using a CytoFLEX (Beckman Coulter). All flow cytometry data were analyzed using FlowJo software.
Background: In flow cytometry, cells or beads pass a laser one at a time.

Test [4] has as its target T4, CD244 extracellular domain fused to a generic transmembrane domain, on tetracycline-inducible FlpIn cells (UniProt Q9BZW8 22-229).
T4 construct: extracellular domain; not shown: transmembrane domain of platelet-derived growth factor (so in the source) with a HA tag
T4 sequence (looked up): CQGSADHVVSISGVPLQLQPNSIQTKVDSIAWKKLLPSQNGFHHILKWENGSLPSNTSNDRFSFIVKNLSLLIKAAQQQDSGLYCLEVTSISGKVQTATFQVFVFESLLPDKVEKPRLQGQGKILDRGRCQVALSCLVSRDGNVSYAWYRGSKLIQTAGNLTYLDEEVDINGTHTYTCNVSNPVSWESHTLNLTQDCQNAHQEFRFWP
Described as above. As to the method:
as §1, §2

The target in test [5] is T5, CD16 extracellular domain fused to a generic transmembrane domain, on tetracycline-inducible FlpIn cells (human, UniProt P08637 17-208).
T5 construct: extracellular domain; HEK293 FlpIn cells, expression on tetracycline addition; also called CD16 over expression cell line; CD16A; not shown: transmembrane domain of platelet-derived growth factor (so in the source) with a HA tag
Described as above. Here is the method: as §1, §2

The target in test [6] is T6, TNFSF4 extracellular domain fused to a generic transmembrane domain, on tetracycline-inducible FlpIn cells (UniProt P23510 51-183).
T6 construct: extracellular domain; also called OX40L; not shown: transmembrane domain of platelet-derived growth factor (so in the source) with a HA tag
T6 sequence (looked up): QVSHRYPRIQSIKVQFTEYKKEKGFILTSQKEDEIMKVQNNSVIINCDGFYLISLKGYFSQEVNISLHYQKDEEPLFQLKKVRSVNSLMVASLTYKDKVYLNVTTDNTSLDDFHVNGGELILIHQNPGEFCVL
Described as above. As to the method: as §1, §2

For test [7], the target named is T7, NCR1 extracellular domain fused to a generic transmembrane domain, on tetracycline-inducible FlpIn cells (human, UniProt O76036 22-258).
T7 construct: extracellular domain; HEK293 FlpIn cells, expression on tetracycline addition; also called NCR1 over expression cell line; not shown: transmembrane domain of platelet-derived growth factor (so in the source) with a HA tag
The test is described as above. As to the method:
as §1, §2

In test [8] the target is T8, NCR3 extracellular domain TEV-cleavable Fc-fusion, biotinylated (human, UniProt O14931 19-135, biotinylated (site not stated)).
T8 construct: extracellular domain; Antigen of the phage selections and Fab-phage ELISAs; not shown: TEV cleavage site and Fc domain
T8 sequence (looked up): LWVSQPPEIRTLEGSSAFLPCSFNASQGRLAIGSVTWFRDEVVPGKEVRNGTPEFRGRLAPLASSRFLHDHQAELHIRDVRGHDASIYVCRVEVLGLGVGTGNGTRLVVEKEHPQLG
As to the kind of experiment: Fab-phage selection and Fab-phage ELISA on biotinylated ECD Fc-fusion (antigen column of Table S1). As to the method: To generate antibodies against these antigens, we expressed the extracellular domains (ECDs) of these proteins as TEV-cleavable Fc-fusions and performed Fab-phage display selections to enrich for high affinity antibody binders (FIG. S1), as previously described [Hornsby, M. et al., Mol Cell Proteomics. 14(10), 2833-2847 (2015)]. After each selection, Fab-phage ELISAs were performed to determine the relative affinity and selectivity of these binders for their antigen targets (FIG. S2).
TEV-cleavable Fc-fusion proteins were expressed and biotinylated in Expi293F cells using the standard expression protocol. Media were harvested after 4 days of expression and protein was purified by protein A affinity chromatography. Phage selections were performed according to previously established protocols1 with the Fab-phage Library E2. Non-specific binders were depleted from the library by incubating the phage pool with Fc-domain immobilized on streptavidin beads. Fab phage were selected using biotinylated Fc-fusions that were captured on streptavidin-coated magnetic beads, and were released through TEV elution. Each selection consists of four rounds. With each round, decreasing amounts of Fc-fusions (1 μM, 100 nM, 10 nM, and […]) were used. ELISAs were performed for 96 individual Fab-phage clones from the third or fourth rounds of selection to evaluate for affinity and selectivity.
ELISAs were performed as previously described1. In brief, Maxisorp plates were coated with 10 μg/mL of Neutravidin overnight at 4° C. Biotinylated target antigen (20 nM) was captured on the Neutravidin coated plates for 30 min, and then exposed to a 1:5 dilution of phage supernatants for 30 min. Bound phage were detected via a horseradish-peroxidase-conjugated anti-phage monoclonal antibody (GE Lifesciences).
A general note: In an ELISA, binding on a coated surface is turned into a signal by an enzyme label.

For test [9], the target named is T9, NCR3 as expressed on NK cells (human, UniProt O14931 19-201).
T9 construct: whole, on cells; Primary human peripheral blood NK cells; NK92MI cells in the bispecific cytotoxicity assay; also called peripheral blood NK cells; NCR3+ NK92MI cells
T9 sequence (looked up): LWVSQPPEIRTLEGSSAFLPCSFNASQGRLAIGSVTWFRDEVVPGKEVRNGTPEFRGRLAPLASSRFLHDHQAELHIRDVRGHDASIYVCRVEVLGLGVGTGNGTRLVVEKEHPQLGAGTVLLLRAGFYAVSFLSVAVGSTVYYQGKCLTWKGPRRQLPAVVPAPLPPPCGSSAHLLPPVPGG
As to the kind of experiment: flow cytometry, Fab titration on peripheral blood NK cells (FIG. S6). As to the method:
To evaluate the affinity of the selected antibodies for NK cells, we titrated the nine Fab clones on peripheral blood NK cells.
as §2

Test [10] concerns the target T10, NCR3 extracellular domain fused to a generic transmembrane domain, on tetracycline-inducible FlpIn cells (human, UniProt O14931 19-135).
T10 construct: extracellular domain; HEK293 FlpIn cells, expression on tetracycline addition; also called NCR3 over expression cell line; not shown: transmembrane domain of platelet-derived growth factor (so in the source) with a HA tag
T10 sequence (looked up): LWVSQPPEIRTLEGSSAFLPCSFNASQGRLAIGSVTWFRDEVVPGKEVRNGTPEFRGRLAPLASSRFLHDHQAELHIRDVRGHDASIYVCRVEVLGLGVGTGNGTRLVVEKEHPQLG
As to the kind of experiment: flow cytometry, Fab on tetracycline-inducible cells over-expressing the ECD (FIG. S5). Here is the method: as §1, §2

T7 sequence (O76036 22-258): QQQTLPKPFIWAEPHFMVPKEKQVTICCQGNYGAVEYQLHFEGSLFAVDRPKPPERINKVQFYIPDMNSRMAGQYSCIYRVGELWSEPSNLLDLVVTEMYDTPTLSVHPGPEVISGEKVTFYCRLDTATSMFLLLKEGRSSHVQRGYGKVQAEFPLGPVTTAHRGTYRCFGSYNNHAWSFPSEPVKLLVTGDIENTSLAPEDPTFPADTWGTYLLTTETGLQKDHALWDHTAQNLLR
T5 sequence (P08637 17-208): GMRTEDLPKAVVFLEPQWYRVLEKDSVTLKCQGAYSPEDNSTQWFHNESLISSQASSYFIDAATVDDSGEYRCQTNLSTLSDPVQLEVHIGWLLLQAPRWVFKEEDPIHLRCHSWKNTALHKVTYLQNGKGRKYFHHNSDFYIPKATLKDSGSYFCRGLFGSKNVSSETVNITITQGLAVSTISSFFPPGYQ

B1: NCR3.18 Fab (Fab)
heavy: EVQLVESGGGLVQPGGSLRLSCAASGFNVSSSSIHWVRQAPGKGLEWVASISSSSGSTSYADSVKGRFTISADTSKNTAYLQMNSLRAEDTAVYYCARRISSYYMSYYDSFYYAGMDYWGQGTLVTVSSASTKGPSVFPLAPSSKSTSGGTAALGCLVKDYFPEPVTVSWNSGALTSGVHTFPAVLQSSGLYSLSSVVTVPSSSLGTQTYICNVNHKPSNTKVDKKVEPKSCDKTHT
light: DIQMTQSPSSLSASVGDRVTITCRASQSVSSAVAWYQQKPGKAPKLLIYSASSLYSGVPSRFSGSRSGTDFTLTISSLQPEDFATYYCQQSSSSLITFGQGTKVEIKRTVAAPSVFIFPPSDSQLKSGTASVVCLLNNFYPREAKVQWKVDNALQSGNSQESVTEQDSKDSTYSLSSTLTLSKADYEKHKVYACEVTHQGLSSPVTKSFNRGEC
notes: also called parental NCR3.18 clone; anti-NCR3 Fab #78
As to B1, the EC50 (usually the concentration giving half of the maximal effect) in test [1] amounted to 2.27 nM; in test [2], 1.63 nM. The binding result in [3], in test [4], in test [5], in test [6] and in [7] was “no binding” throughout.

B2: NCR3.19 Fab (Fab)
heavy: EVQLVESGGGLVQPGGSLRLSCAASGFNVYSYSIHWVRQAPGKGLEWVASIYSYYGSTSYADSVKGRFTISADTSKNTAYLQMNSLRAEDTAVYYCARWYQYYYIGTAAMDYWGQGTLVTVSSASTKGPSVFPLAPSSKSTSGGTAALGCLVKDYFPEPVTVSWNSGALTSGVHTFPAVLQSSGLYSLSSVVTVPSSSLGTQTYICNVNHKPSNTKVDKKVEPKSCDKTHT
light: DIQMTQSPSSLSASVGDRVTITCRASQSVSSAVAWYQQKPGKAPKLLIYSASSLYSGVPSRFSGSRSGTDFTLTISSLQPEDFATYYCQQQWYPLITFGQGTKVEIKRTVAAPSVFIFPPSDSQLKSGTASVVCLLNNFYPREAKVQWKVDNALQSGNSQESVTEQDSKDSTYSLSSTLTLSKADYEKHKVYACEVTHQGLSSPVTKSFNRGEC
notes: also called anti-NCR3 Fab #79
B2: the binding result was “binds” in [8]; “binds” in [9]; “no binding” in test [3]; “no binding” in [4]; “no binding” in [5]; “no binding” in test [6]. In addition, the binding result is on record as “no binding” in test [7] and “binds” in test [10].

B3: NCR3.12 Fab (Fab)
heavy: EVQLVESGGGLVQPGGSLRLSCAASGFNISSSSIHWVRQAPGKGLEWVAYISSSSGYTSYADSVKGRFTISADTSKNTAYLQMNSLRAEDTAVYYCARYSYFYGGYFYWTSWGAFDYWGQGTLVTVSSASTKGPSVFPLAPSSKSTSGGTAALGCLVKDYFPEPVTVSWNSGALTSGVHTFPAVLQSSGLYSLSSVVTVPSSSLGTQTYICNVNHKPSNTKVDKKVEPKSCDKTHT
light: DIQMTQSPSSLSASVGDRVTITCRASQSVSSAVAWYQQKPGKAPKLLIYSASSLYSGVPSRFSGSRSGTDFTLTISSLQPEDFATYYCQQSSYWPFTFGQGTKVEIKRTVAAPSVFIFPPSDSQLKSGTASVVCLLNNFYPREAKVQWKVDNALQSGNSQESVTEQDSKDSTYSLSSTLTLSKADYEKHKVYACEVTHQGLSSPVTKSFNRGEC
notes: also called anti-NCR3 Fab #72
Consider B3, for which the binding result in [8] is “binds”; in test [9], “binds”; in test [3], “no binding”; in [4], “no binding”; in test [5], “no binding”; in [6], “no binding”. The binding result in test [7] is “no binding”; in test [10], “binds”.
